The values that follow are results of earlier work, collected in PMC2908543, “Uropathogenic Escherichia coli Modulates Immune Responses and Its Curli Fimbriae Interact with the Antimicrobial Peptide LL-37” (PLoS Pathogens, 2010).

This series concerns Pseudomonas aeruginosa. The settings on record: ref [47]. From the text: Biofilm inhibition by antimicrobial polypeptides has previously been described for Pseudomonas aeruginosa. […] A direct interaction with biofilm components was not investigated in these studies. The effect was rather related to an influence of LL-37 on the bacterial gene expression profile or an influence of lactoferrin on free iron. These and our findings stress an important anti-biofilm role of antimicrobial polypeptides in host defense. It is likely that the anti-biofilm activit ...

B1: lactoferrin (protein, UniProt P02788 20-710, looked up)
Lactotransferrin: GRRRSVQWCAVSQPEATKCFQWQRNMRKVRGPPVSCIKRDSPIQCIQAIAENRADAVTLDGGFIYEAGLAPYKLRPVAAEVYGTERQPRTHYYAVAVVKKGGSFQLNELQGLKSCHTGLRRTAGWNVPIGTLRPFLNWTGPPEPIEAAVARFFSASCVPGADKGQFPNLCRLCAGTGENKCAFSSQEPYFSYSGAFKCLRDGAGDVAFIRESTVFEDLSDEAERDEYELLCPDNTRKPVDKFKDCHLARVPSHAVVARSVNGKEDAIWNLLRQAQEKFGKDKSPKFQLFGSPSGQKDLLFKDSAIGFSRVPPRIDSGLYLGSGYFTAIQNLRKSEEEVAARRARVVWCAVGEQELRKCNQWSGLSEGSVTCSSASTTEDCIALVLKGEADAMSLDGGYVYTAGKCGLVPVLAENYKSQQSSDPDPNCVDRPVEGYLAVAVVRRSDTSLTWNSVKGKKSCHTAVDRTAGWNIPMGLLFNQTGSCKFDEYFSQSCAPGSDPRSNLCALCIGDEQGENKCVPNSNERYYGYTGAFRCLAENAGDVAFVKDVTVLQNTDGNNNEAWAKDLKLADFALLCLDGKRKPVTEARSCHLAMAPNHAVVSRMDKVERLKQVLLHQQAKFGRNGSDCPDKFCLFQSETKNLLFNDNTECLARLHGKTTYEKYLGPQYVAGITNLKKCSTSPLLEACEFLRK
notes: antimicrobial polypeptide
B1: the “bacterial surface motility mediated by type IV pili” value is listed as “increased bacterial surface motility”.
